Measurements taken from patent US20240382677A1 (Regeneron, published 2024).
Changes are numbered by the printed parent chain.

T1: monkey PD-1 with mFc (monkey PD-1-mFc) (monkey)
T1 construct: also called monkey PD-1 dimer; MfPD-1 dimer
T1 chain: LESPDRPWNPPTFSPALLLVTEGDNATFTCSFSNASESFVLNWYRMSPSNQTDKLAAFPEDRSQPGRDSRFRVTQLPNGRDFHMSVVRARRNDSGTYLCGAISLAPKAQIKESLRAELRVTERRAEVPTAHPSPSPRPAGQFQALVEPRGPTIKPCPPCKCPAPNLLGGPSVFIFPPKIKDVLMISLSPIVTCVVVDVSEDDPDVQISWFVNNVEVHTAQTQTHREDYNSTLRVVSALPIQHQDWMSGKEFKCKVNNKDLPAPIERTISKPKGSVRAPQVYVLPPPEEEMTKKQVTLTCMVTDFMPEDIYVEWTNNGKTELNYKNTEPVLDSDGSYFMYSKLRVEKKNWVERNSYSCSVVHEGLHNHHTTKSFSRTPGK

B1: H4xH9119P2 (antibody, V domains shown)
VH: EVQLVESGGGLVQPGRSLRLSCAASGFTFEDYAMHWVRQAPGKGLEWVSGIGWSNVKIGYADSVKGRFTISRDNVRNSLYLQMNSLRTEDTAFYYCVKAYTSMLTLYFDYWGQGTLVTVSS
VL: not shown
notes: human IgG4 Fc with 2 or more amino acid changes (US20100331527)
B2: H4H9068P2 (antibody, V domains shown)
VH: EVQLVESGGGLVQRGGSLRLSCAASGFSFSSYAMNWVRQAPGKGLEWVSTISDSGGSTYYADSVKGRFTISRDNSKNTLSLQMNSLRAEDTAVYYCAKDQGGSYPYYFHYWGQGTLVTVSS
VL: not shown
B3: H4xH9120P2 (antibody, V domains shown)
VH: QVQLVQSGAEVKRPGASVKVSCKASGYTFTSFYMYWVRQAPGQGLEWMGIINPSDGSTSNAQKFQGRVTMTRDTSTSTVYMELSSLRSEDTAVYYCARRVAGDIFDIWGQGTMVTVSS
VL: not shown
notes: as for B1
B4: H1M7789N (antibody, mouse IgG1, V domains shown)
VH: EVQLLESGGGLVQPGGSLRLSCSASGFTFSSYTMNWVRQAPGKGLEWVSGISDTGGNTYYTDSVKGRFTVSRDNSKNTLSLQMNSLRAEDTAVYYCAKDQGGSYPYYFHYWGQGSLVTVSS
VL: DIQMTQSPSSLSASVGDRVTITCRASQSISSYLIWYQQKPGTAPKFLIYAASSLQSGVPSRFSGCGSGTDFTLTISSLQPEDFATYYCQQSYSTPPITFGQGTRLEIK
notes: mouse IgG1 Fc; human variable regions; also called H1M7789W
B5: H2aM7796N (antibody, mouse IgG2a, V domains shown)
VH: QVQLVESGGGVVQPGRSLRLSCAASGFTFSSYGMHWVRQAPGKGLEWVAIIWSDGDSEYNLDSVKGRFTISRDNSKNTLYLQMNSLRVEDSAVYYCARDRDLEDIWGQGTMVTVSS
VL: DIQMTQSPSSLSASVGDRVTITCRASQGIRNDLGWYQQKPGKAPKRLIYAASNLQSGVPSRFSGSGSGTEFTLTISSLQPEDFATYYCLQHNSYPLTFGGGTKVEIK
notes: mouse IgG2a Fc; human variable regions; also called H2M7796N
B6: H2aM7795N (antibody, mouse IgG2a, V domains shown)
VH: EVQVVESGGGLVEPGRSLRLSCKASGFTFDDYAMHWVRQTPGKALEWVSGINWSGNNIGYADSVKGRFTISKDDAKNSLYLQMNSLRPEDTALYYCTKDISITGTLDAFDVWGQGTMVTVSS
VL: DIQMTQSPISVSASVGDRVTITCRASQGISNWLAWYQQKPGIAPKLLIYSASSLQSGVPSRFRGSGSGTDFTLTIGSLQPEDFATYYCQQAHSFPLTFGGGTKVEIK
notes: mouse IgG2a Fc; human variable regions; also called H2M7795N
B7: H2aM7794N (antibody, V domains shown)
VH: QLQLQESGPDLVKPSDTLSLTCTVSDDSISSTTYYWAWIRQPPGKGLEWIGSMSYNGNNYYNPSLKSRVAISAGTSQKQFSLKLTSVTAADTAVYHCARHLGYNGNWYPFDFWGQGILVTVSS
VL: not shown
notes: mouse IgG2a Fc; human variable regions; also called H2M7794N
B8: H2aM7788N (antibody, mouse IgG2a, V domains shown)
VH: EVQLVESGGGLVQPGGSLRLSCGASGFTFRNYDMHWVRQITGKGLEWVSAIGSAGDTYYPDSVKGRFTISRENAKNSLYLQMNSLRVGDTAVYYCTRDIHCSSTRCYGMDVWGQGTTVTVSS
VL: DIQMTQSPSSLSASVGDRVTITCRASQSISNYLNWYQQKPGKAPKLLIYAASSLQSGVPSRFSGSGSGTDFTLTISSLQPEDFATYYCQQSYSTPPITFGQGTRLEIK
notes: mouse IgG2a Fc; human variable regions; also called H2M7788N
B9: H2aM7798N (antibody, mouse IgG2a, V domains shown)
VH: EVQLLESGGVLVQPGGSLRLSCAASGFTFSNFGMTWVRQAPGKGLEWVSGISGGGRDTYFADSVKGRFTISRDNSKNTLYLQMNSLKGEDTAVYYCVKWGNIYFDYWGQGTLVTVSS
VL: DIQMTQSPSSLSASVGDSITITCRASLSINTFLNWYQQKPGKAPNLLIYAASSLHGGVPSRFSGSGSGTDFTLTIRTLQPEDFATYYCQQSSNTPFTFGPGTVVDFR
notes: mouse IgG2a Fc; human variable regions; also called H2M7798N
B10: H1M7799N (antibody, mouse IgG1, V domains shown)
VH: EVQLVESGGGLVQPGGSLRLSCAASGFTVSNNYMSWVRQAPGKGLEWVSVIYSGGFTYYTDSVKGRFTISRHNSKNTLYLQMNSLRAEDTAVYYCARYYYDTSDYWTFFDYWGQGTLVTVSS
VL: EIVMTQSPATLSVSPGERATLSCRASQSVSSNLAWYQQKPGQAPRLLIYGASTRATGIPARFSGSGSGTEFTLTISSLQSGDFAVYYCQQYNNWPLTFGGGTKVEIN
notes: mouse IgG1 Fc; human variable regions
B11: H1M7800N (antibody, mouse IgG1, V domains shown)
VH: B10 VH
VL: B10 VL
notes: as for B10
B12: H2aM7791N (antibody, mouse IgG2a, V domains shown)
VH: QMQLQQWGAGLLKPSETLSLTCVVYGGSLNGYYWSWIRQSPGKGLEWIGEIDHSGSTNYNPSLKNRVTMSVDTSKIQFSLKLTSVTVADTAVYYCAREGLLPFDYWGQGTLVTVSS
VL: EIVLTQSPGTLSLSPGERVTLSCRASQSVYSNYLAWYQQNPGQAPRLLIYAASNRATGIPDRFSGSGSGTDFTLTISRLEPEDFAVYYCHQYATSPWTFGQGTKVEIK
notes: mouse IgG2a Fc; human variable regions; also called H2M7791N
B13: H4xH9008P (antibody, V domains shown)
VH: EVQLVESGGGLVRPGGSLRLSCAASGFTFSTYAMAWVRQTPGKGLEGVSAIGGSGDSTYYVDSVKGRFTISRDNSKSTLFLQMNSLRAEDTAVYYCVKVRNYDGSFDIWGQGTMVTVSS
VL: not shown
notes: as for B1
B14: H4xH9037P (antibody, V domains shown)
VH: EVQLVESGGGLVQPGGSLRLSCAASGFTFDDYAMHWVRQAPGKGLEWVSGIGWSSGSIGYADSVKGRFTISRDNAKNSLYLQMDSLRPEDSALYYCAKAYTFMITLYFDYWGQGTLVTVSS
VL: not shown
B15: H4xH9045P (antibody, V domains shown)
VH: EVQLVESGGGLVQPGRSLRLSCAASGFTFDDYDMHWVRQAPGKGLEWVSGSGWNRGSLGYADSVKGRFTISRDNAKKSLYLQMNSVRVEDTALYYCAKGFVVVSAAYFDYWGQGTLVTVSS
VL: not shown
B16: H4H7795N2 (antibody, human IgG4 S228P, kappa, V domains shown)
VH: B6 VH with N52S
VL: DIQMTQSPISVSASVGDRVTITCRASQGISNWLAWYQQKPGIAPKLLIYSASSLQSGVPSRFRGSGSGTDFTLTIGSLQPEDFATYYCQQAHSFPLTFGGGTKVEIKR
notes: human IgG4 Fc
B17: H4xH9048P2 (antibody, V domains shown)
VH: QVQLVQSGAEVKRPGSSVKVSCKVSGVTFRNFAIIWVRQAPGQGLEWMGGIIPFFSAANYAQSFQGRVTITPDESTSTAFMELASLRSEDTAVYYCAREGERGHTYGFDYWGQGTLVTVSS
VL: not shown
B18: H4xH8999P (antibody, V domains shown)
VH: QLQLQESGPGLVQPSETLSLTCTVSGDSISSTAYHWDWIRQPPGKGLEWIGTITYNGNTYFNPSLKSRVTISVDTSKNQFSLKLLSMTAAETAVFYCARHLGYNSDFFPFDFWGQGTLVTVSS
VL: not shown
notes: as for B1
B19: H4H9057P2 (antibody, V domains shown)
VH: EVQLVESGGGLVQSGRSLRLSCAASGFTFDDYAMHWVRQPPGKGLEWVSGINWNRGRTGYADSVKGRFTISRDNAKNSLYLQMNDLRVEDTALYYCAKAEQWLDEGYFDYWGQGTLVTVSS
VL: not shown
B20: H4xH8992P (antibody, V domains shown)
VH: EVQLVESGGGLVQPGRSLRLSCVASGFALHDYAMHWVRQVPGKGLEWVSSISWNSGVIGYADSLKGRFTISRDNAKNSLYLQMNSLRAEDTALYYCAKGSGSYYVSWFDPWGQGTLVTVSS
VL: not shown
notes: as for B1
B21: H4xH9035P (antibody, V domains shown)
VH: EVQLVESGGRVVRPGGSLRLSCAASGFTFDDYGMSWVRQLPGKGLEWVAGISWNDGKTVYAESVKGRFIISRDNAKNSLHLEMNSLRAEDTALYYCARDWQYLIDRYFDFWGQGTLVTVSS
VL: not shown
B22: H4H7798N (antibody, human IgG4 S228P, kappa, V domains shown)
VH: B9 VH
VL: DIQMTQSPSSLSASVGDSITITCRASLSINTFLNWYQQKPGKAPNLLIYAASSLHGGVPSRFSGSGSGTDFTLTIRTLQPEDFATYYCQQSSNTPFTFGPGTVVDFRR
notes: human IgG4 Fc; also called REGN2810; cemiplimab

target: recombinant human PD-1 expressed with a C-terminal human IgG1 Fc tag (hPD-1-hFc) (human); assay: SPR Biacore 3000, captured hPD-L1-mFc
Sequence (chain, as listed by the source limits assumed): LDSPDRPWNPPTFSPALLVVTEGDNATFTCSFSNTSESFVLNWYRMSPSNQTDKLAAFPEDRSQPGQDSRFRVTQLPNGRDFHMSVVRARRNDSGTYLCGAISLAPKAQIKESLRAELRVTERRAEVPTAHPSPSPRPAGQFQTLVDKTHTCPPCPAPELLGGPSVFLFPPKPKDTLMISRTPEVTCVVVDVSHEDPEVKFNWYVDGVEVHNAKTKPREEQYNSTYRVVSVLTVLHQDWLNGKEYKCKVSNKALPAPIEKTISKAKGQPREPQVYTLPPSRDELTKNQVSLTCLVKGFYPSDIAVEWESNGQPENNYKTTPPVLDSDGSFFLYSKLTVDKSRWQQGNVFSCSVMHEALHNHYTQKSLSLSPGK
Experimental: Next, inhibition studies for anti-PD-1 monoclonal antibodies expressed with human Fc were performed on a Biacore 3000 instrument. […] The real-time binding responses were monitored during the entire course of the experiment and the binding response at the end of every step was recorded.

| binding of the mixture of 100 nM hPD-1-hFc and 500 nM antibody [RU] | % Blocking [%] | Binder |
| --- | --- | --- |
| -5 |  | B1 |
| 365 | -265 | B2 |
| 0 |  | B3 |

target: T2, recombinant human PD-1 dimer expressed with a C-terminal mouse IgG2a Fc tag (hPD-1-mFc) (human); assay: BLI Octet Red 96, captured hPD-L1-hFc
T2 construct: also called human PD-1-mFc
Experimental: Inhibition studies for anti-PD-1 monoclonal antibodies expressed with a mouse Fc were performed on an Octet Red 96 instrument. […] The biosensors were washed in Octet HBST buffer in between each step of the experiment. The real-time binding responses were monitored during the entire course of the experiment and the binding response at the end of every step was recorded.

| binding of the mixture of 100 nM hPD-1-mFc and 500 nM antibody [nm] | Binder |
| --- | --- |
| 0.05 | B4 |
| -0.02 | B5 |
| -0.01 | B6 |
| -0.01 | B7 |
| 0 | B8 |
| 0.01 | B9 |
| 0 | B10 |
| 0 | B11 |
| 0.23 | B12 |

Target: T1, monkey PD-1 with mFc (monkey PD-1-mFc)
Assay: SPR 37C, mAb captured;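 also: Real-time binding of antigen to purified anti-PD-1 antibodies, measured by surface plasmon resonance on a Biacore 4000 or T200 instrument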
Experimental: (§1) Binding association and dissociation rate constants (ka and kd, respectively), equilibrium dissociation constants and dissociation half-lives (KD and t½, respectively) for antigen binding to purified anti-PD1 antibodies were determined using a real-time surface plasmon resonance biosensor assay on a Biacore 4000 or Biacore T200 instrument. […] Experiments were performed at 25° C. and 37° C. Kinetic association (ka) and dissociation (kd) rate constants were determined by processing and fitting the data to a 1:1 binding model using Scrubber 2.0c curve fitting software. Binding dissociation equilibrium constants (KD) and dissociative half-lives (t½) were then calculated from the kinetic rate constants as: KD (M)=kd/ka and t½ (min)=[ln 2/(60*kd)].

| 100 nM Monkey PD-1-mFc Bound [RU] | t½ [min] | Binder |
| --- | --- | --- |
| 40 |  | B1 |
| 6 | 1.1 | B2 |
| 98 |  | B13 |
| 24 |  | B14 |
| 65 | 8 | B15 |
| 47 | 40 | B16 |
| 84 |  | B17 |
| 46 | 23 | B3 |
| 83 | 23 | B18 |
| 28 | 2.4 | B19 |
| 86 | 8 | B20 |
| 40 | 19 | B21 |
| 88 | 91 | B22 |

Target: T1, monkey PD-1 with mFc (monkey PD-1-mFc)
Assay: SPR 25C, mAb captured
Experimental: as §1

| 100 nM Monkey PD-1-mFc Bound [RU] | t½ [min] | Kd [nM] | Binder |
| --- | --- | --- | --- |
| 83 | 67 |  | B1 |
| 17 | 4 |  | B2 |
|  | 200 |  | B13 |
| 58 | 84 |  | B14 |
| 78 | 69 |  | B15 |
| 60 | 116 |  | B16 |
| 115 | 63 |  | B17 |
| 52 | 104 |  | B3 |
| 128 | 100 |  | B18 |
| 75 | 38 | 2.96 | B19 |
| 122 | 46 |  | B20 |
| 78 | 116 |  | B21 |
| 93 | 188 |  | B22 |
